system: MS2 coat protein; assay: apparent KD of MS2 coat protein; higher = weaker reporter binding; settings: Eterna round: R107; input ligand: theophylline 20 uM
Experimental: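 RNA-MaP round R107: designed RNA switches with theophylline, tryptophan, arginine or FMN aptamers are transcribed on-chip within common flanks. They are titrated with SNAP-549-labelled MS2 coat protein in RNA-MaP buffer (100 mM Tris pH 7.5, 80 mM KCl, 4 mM MgCl2), without ligand or with the indicated ligand. Median apparent KD per design.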

| Sequence | apparent KD of MS2 coat protein [nM] |
| --- | --- |
| CAUAGCAAAAGUGAUACCAGAGUUCGAGGGAACAUGAGGAUCACCCAUGUGCUUGUACAACUCCCUUGGCAGCACAGAGCAAUUA [theeternabot_sameState_MS2_Theo_B_16] | 22.1 |
| UGUCAUGGAAACAUGACUGGUUCUACCGGUCGAGGACCGGUACGGCCGCCACUCGAUUGGUGGCACAUGAGGAUCACCCAUGUUA [SS Tryp A #14] | 51.9 |
| GGGUGGUAGGCGGCCGCCACUGAUUUUUAUUUAUAGAUGACAUGAGGAUCACCCAUGUUUAUGUGCAGGACCGGGCCUGUUGUGG [aaaR] | 15.2 |
| CUGUUUACAUGAGCCCGUCAUAUAUACGAUACCAGUUAAAGAUGAAACCCUUGGCAGCGUAGGACAUGAGGAUCACCCAUGUGCC [theeternabot_exclusion_MS2_Theo_A_17] | 21.1 |
| CCCAGUCAUAACAAAGGAAAUAUACUCGAAGGAGCGUCAUAGUAGGCAGGUAGGUCGCGAGACAUGAGGAUCACCCAUGUAGAGA [swwvmullin] | 72 |
| GGGCGCUAUCCCGCGAGGGAUAGCGUUCAACGAGGACCGGUACGGCCGCCACUCGAACGAGUGGUGACAUGAGGAUCACCCAUGU [Iaa] | 66.4 |
| GGAUAGGACACGGCCGCCACUUGCUAGGAUACUAGCAACAUUUCCUCUCAUGAGGAUCACCCAUGAAGGACCGGGUGUCCUAUCG | 30.6 |
| ACGGACAUGAGGAUCACCCAUGUGGCCGAAGGAGCGGGAAUUAACCCAGGUAGGUCGCGGAAAUUUUUUAAAUUAUUUUAAUUUU [Same State - Arginine A] | 21.5 |
| AAACUUCGCAUAGGAAAACUAUGUGAAGAUCGAGGACCGGUACGGCCGCCACUCGUCCUCAACAUGAGGAUCACCCAUGUAAUAA [Mat - Exclusion - Trytophan A - D3] | 23.7 |
| AGCCCGGGAGCGGCCGCCACUGGAGGCUUAGCGCGACAUGAGGAUCACCCAUGUGUGCCCGGCGUUAGGACCGGGCUCGCGUGGU [#1 Same State - Tryptophan B Attempt #22 (HarryS)] | 52.7 |
| AUGUCGUUGAAUAUAGCGGCUUGGAGUGAUACCAGUAUGAUCCAAUACCCUUGGCAGCAUUACAUGAGGAUCACCCAUGUUCCAG [SSTheo A #24] | 37.2 |
| GACAUUAACUGAAGGAGCGAGGUAGAACGGGAUGAGCAUACAUGAGGAUCACCCAUGUGGCCUCAGGUAGGUCGCAGAUGAGAUU [Exclusion Arginine B GF25] | 201 |
| AACAUGAGGAUCACCCAUGUCCCAUGUGAACGAGGACCGGUACGGCCGCCACUCGAAUGAGGCGGCACAUGAGGAUCACCCACAU [whbob_SS_trypto A_2s11] | 233 |
| GCACUACAUGAGGAUCACCCAUGUGCAGAUACCAGAGGUGUAUGCCUCCCUUGGCAGCUGCGUCGCUCUGGAAACUUAUUGGUUU [Same State Theophylline A GF17] | 26.6 |
| UCAAAUGCGGCGGCCGCCACUCGCGGAUAACGAUAGCUUAACAUGAGGAUCACCCAUGUGUCAUGGAGGACCGGGCCCAUAACAU [ttmullin] | 35.1 |

same assay, conditions: Eterna round: R107; input ligand: theophylline 2 mM

| Sequence | apparent KD of MS2 coat protein [nM] |
| --- | --- |
| UUGACAUGAGGAUCACCCAUGUCAAAGGCACGAGGACCGGUACGGCCGCCACUCGUGGUCUAUGGCUGGUGGACUCGUGUCUCGG [Soisusdira] | 16.8 |
| ACUUCGCAUAGGAAAACUAUGUGAAGAAAUCGAGGACCGGUACGGCCGCCACUCGUCCUCAACAUGAGGAUCACCCAUGUAAUAA [Mat - Exclusion - Trytophan A - D5] | 23.9 |
| ACAUGAGGAUCACCCAUGUAUUGAGCCGAAGGAGCGGCAGGUAUGCCAGGUAGGUCGCGGUUAGAGUAGAUUGAUGUUCUUUUGU [Exclusion - Arginine A / B] | 16.3 |
| AGGACGGUCGGAAGGAGCGGUACAUGAGGAUCACCCAUGUACUUAUGGGCAUCCGUAGAGUGCCAGGUAGGUCGCCGAUUGCGGG [XArg-B11] | 21.8 |
| GACAUGAGGAUCACCCAUGUUUGCUAUGAAGGAGCGUCGGAAAUGACAGGUAGGUCGCAUAGUAGACCUUGUAUUUCGUGUGUUU [#01 Exclusion - Arginine A] | 11.2 |
| UGUGCAGGAUGCGUAAAGGGUCUUGGGCAUCGAGGACCGGUACGGCCGCCACUCGGCUGUACAUGAGGAUCACCCAUGUCAGGGU [#1 Same State - Tryptophan A Attempt #20 (HarryS)] | 393 |
| CUAAAUAUAUCGGCCGCCACUUACUCAUGAGGUAACAACAUGAGGAUCACCCAUGUUUGAGGAUCAAGGACCGGGAUAUAUUUAG [AstrosSSTryB#16] | 28.9 |
| GGGAAAUGAAUAGAAUGAGAUGACACAGAAGGAGCGCGGAUUAACGCAGGUAGGUCGCUGACAACAUGAGGAUCACCCAUGUUUC [#10 Same State - Arginine A] | 18 |
| CGUUAAGAAUCGGCCGCCACUCCAUACGUGUGAAUCGCGGAUCGACAUGAGGAUCACCCAUGUCGGAGGACCGGGAUCCUCUUUC [theeternabot_sameState_MS2_Trp_B_12] | 48 |
| ACGCCCAGGUAGGCUUAAUGGGAUAUGGAAGGAGCGCUGAUGCAAGCAGGUAGGUCGCCAACGGACAUGAGGAUCACCCAUGUAC [Same State - Arginine A (Freestyle 3)] | 23.8 |
| UGUAUGUGAUCUGAUACCAGUCCAACUGGUAAAGCAUGAGGAUCACCCAUGUAAAAUUGGGACCCUUGGCAGCAGAUCGCAUACU | 316 |
| AGCAUGUUCAGAAGGAGCGUGCAAGGGUACAUUCGUAGGACAUGAGGAUCACCCAUGUAAGCACAGGUAGGUCGCUGGACAUGCU [Arg B SS t5] | 129 |
| UGUCAUGGAAACAUGACUGGUUCUACCGGUCGAGGACCGGUACGGCCGCCACUCGAUUGGUGGCACAUGAGGAUCACCCAUGUUA [SS Tryp A #14] | 33.9 |
| GGGUGGUAGGCGGCCGCCACUGAUUUUUAUUUAUAGAUGACAUGAGGAUCACCCAUGUUUAUGUGCAGGACCGGGCCUGUUGUGG [aaaR] | 15.6 |
| CCCAGUCAUAACAAAGGAAAUAUACUCGAAGGAGCGUCAUAGUAGGCAGGUAGGUCGCGAGACAUGAGGAUCACCCAUGUAGAGA [swwvmullin] | 75.1 |
| GGGCGCUAUCCCGCGAGGGAUAGCGUUCAACGAGGACCGGUACGGCCGCCACUCGAACGAGUGGUGACAUGAGGAUCACCCAUGU [Iaa] | 53.3 |
| GGAUAGGACACGGCCGCCACUUGCUAGGAUACUAGCAACAUUUCCUCUCAUGAGGAUCACCCAUGAAGGACCGGGUGUCCUAUCG | 23.3 |
| ACGGACAUGAGGAUCACCCAUGUGGCCGAAGGAGCGGGAAUUAACCCAGGUAGGUCGCGGAAAUUUUUUAAAUUAUUUUAAUUUU [Same State - Arginine A] | 18.7 |
| AAACUUCGCAUAGGAAAACUAUGUGAAGAUCGAGGACCGGUACGGCCGCCACUCGUCCUCAACAUGAGGAUCACCCAUGUAAUAA [Mat - Exclusion - Trytophan A - D3] | 23 |
| AGCCCGGGAGCGGCCGCCACUGGAGGCUUAGCGCGACAUGAGGAUCACCCAUGUGUGCCCGGCGUUAGGACCGGGCUCGCGUGGU [#1 Same State - Tryptophan B Attempt #22 (HarryS)] | 46.1 |
| AUGUCGUUGAAUAUAGCGGCUUGGAGUGAUACCAGUAUGAUCCAAUACCCUUGGCAGCAUUACAUGAGGAUCACCCAUGUUCCAG [SSTheo A #24] | 53.4 |
| GACAUUAACUGAAGGAGCGAGGUAGAACGGGAUGAGCAUACAUGAGGAUCACCCAUGUGGCCUCAGGUAGGUCGCAGAUGAGAUU [Exclusion Arginine B GF25] | 203 |
| AACAUGAGGAUCACCCAUGUCCCAUGUGAACGAGGACCGGUACGGCCGCCACUCGAAUGAGGCGGCACAUGAGGAUCACCCACAU [whbob_SS_trypto A_2s11] | 237 |
| UCAAAUGCGGCGGCCGCCACUCGCGGAUAACGAUAGCUUAACAUGAGGAUCACCCAUGUGUCAUGGAGGACCGGGCCCAUAACAU [ttmullin] | 37.1 |

same assay, conditions: Eterna round: R107; input ligand: tryptophan 2.4 mM

| Sequence | apparent KD of MS2 coat protein [nM] |
| --- | --- |
| UACAUGAGGAUCACCCAUGUAUGAAUAGAUACCAGAUAAAAUAAGGUCCCUUGGCAGCUAGUGAAUAAAGGGUGGGUAAAAUAAU [Exclusion Theophyline A GF 1] | 9.24 |
| UCAUUGAGAGUCAUCCAGCGUUAAUGGGAUACCAGAGUUCUUUUACUCCCUUGGCAGCCCGGAACAUGAGGAUCACCCAUGUCUG [theeternabot_exclusion_MS2_Theo_A_39] | 31.8 |
| UUGACAUGAGGAUCACCCAUGUCAAAGGCACGAGGACCGGUACGGCCGCCACUCGUGGUCUAUGGCUGGUGGACUCGUGUCUCGG [Soisusdira] | 10.8 |
| AGCCUAUUACAUGAGGAUCACCCAUGUGAUACCAGUCAGGAAACUGACCCUUGGCAGCGCAUGAGGAUCACCCAUGCGCGAGGCA [Omei Theo A Exc A v4] | 10.6 |
| ACAUGAGGAUCACCCAUGUAUUGAGCCGAAGGAGCGGCAGGUAUGCCAGGUAGGUCGCGGUUAGAGUAGAUUGAUGUUCUUUUGU [Exclusion - Arginine A / B] | 12.4 |
| AGGACGGUCGGAAGGAGCGGUACAUGAGGAUCACCCAUGUACUUAUGGGCAUCCGUAGAGUGCCAGGUAGGUCGCCGAUUGCGGG [XArg-B11] | 34.1 |
| GACAUGAGGAUCACCCAUGUUUGCUAUGAAGGAGCGUCGGAAAUGACAGGUAGGUCGCAUAGUAGACCUUGUAUUUCGUGUGUUU [#01 Exclusion - Arginine A] | 12 |
| UGUGCAGGAUGCGUAAAGGGUCUUGGGCAUCGAGGACCGGUACGGCCGCCACUCGGCUGUACAUGAGGAUCACCCAUGUCAGGGU [#1 Same State - Tryptophan A Attempt #20 (HarryS)] | 271 |
| GGGAAAUGAAUAGAAUGAGAUGACACAGAAGGAGCGCGGAUUAACGCAGGUAGGUCGCUGACAACAUGAGGAUCACCCAUGUUUC [#10 Same State - Arginine A] | 14.1 |
| ACGCCCAGGUAGGCUUAAUGGGAUAUGGAAGGAGCGCUGAUGCAAGCAGGUAGGUCGCCAACGGACAUGAGGAUCACCCAUGUAC [Same State - Arginine A (Freestyle 3)] | 19.5 |
| UGUAUGUGAUCUGAUACCAGUCCAACUGGUAAAGCAUGAGGAUCACCCAUGUAAAAUUGGGACCCUUGGCAGCAGAUCGCAUACU | 138 |
| AGCAUGUUCAGAAGGAGCGUGCAAGGGUACAUUCGUAGGACAUGAGGAUCACCCAUGUAAGCACAGGUAGGUCGCUGGACAUGCU [Arg B SS t5] | 107 |
| CAUAGCAAAAGUGAUACCAGAGUUCGAGGGAACAUGAGGAUCACCCAUGUGCUUGUACAACUCCCUUGGCAGCACAGAGCAAUUA [theeternabot_sameState_MS2_Theo_B_16] | 26.9 |
| GGGUGGUAGGCGGCCGCCACUGAUUUUUAUUUAUAGAUGACAUGAGGAUCACCCAUGUUUAUGUGCAGGACCGGGCCUGUUGUGG [aaaR] | 13.9 |
| CUGUUUACAUGAGCCCGUCAUAUAUACGAUACCAGUUAAAGAUGAAACCCUUGGCAGCGUAGGACAUGAGGAUCACCCAUGUGCC [theeternabot_exclusion_MS2_Theo_A_17] | 18.6 |
| CCCAGUCAUAACAAAGGAAAUAUACUCGAAGGAGCGUCAUAGUAGGCAGGUAGGUCGCGAGACAUGAGGAUCACCCAUGUAGAGA [swwvmullin] | 57.8 |
| GGGCGCUAUCCCGCGAGGGAUAGCGUUCAACGAGGACCGGUACGGCCGCCACUCGAACGAGUGGUGACAUGAGGAUCACCCAUGU [Iaa] | 56.4 |
| GGAUAGGACACGGCCGCCACUUGCUAGGAUACUAGCAACAUUUCCUCUCAUGAGGAUCACCCAUGAAGGACCGGGUGUCCUAUCG | 27.3 |
| ACGGACAUGAGGAUCACCCAUGUGGCCGAAGGAGCGGGAAUUAACCCAGGUAGGUCGCGGAAAUUUUUUAAAUUAUUUUAAUUUU [Same State - Arginine A] | 17.3 |
| AGCCCGGGAGCGGCCGCCACUGGAGGCUUAGCGCGACAUGAGGAUCACCCAUGUGUGCCCGGCGUUAGGACCGGGCUCGCGUGGU [#1 Same State - Tryptophan B Attempt #22 (HarryS)] | 35.2 |
| AUGUCGUUGAAUAUAGCGGCUUGGAGUGAUACCAGUAUGAUCCAAUACCCUUGGCAGCAUUACAUGAGGAUCACCCAUGUUCCAG [SSTheo A #24] | 34 |
| GACAUUAACUGAAGGAGCGAGGUAGAACGGGAUGAGCAUACAUGAGGAUCACCCAUGUGGCCUCAGGUAGGUCGCAGAUGAGAUU [Exclusion Arginine B GF25] | 179 |
| GCACUACAUGAGGAUCACCCAUGUGCAGAUACCAGAGGUGUAUGCCUCCCUUGGCAGCUGCGUCGCUCUGGAAACUUAUUGGUUU [Same State Theophylline A GF17] | 18.6 |
| UCAAAUGCGGCGGCCGCCACUCGCGGAUAACGAUAGCUUAACAUGAGGAUCACCCAUGUGUCAUGGAGGACCGGGCCCAUAACAU [ttmullin] | 23.9 |

Reference: the supplement of paper PMC9170038
